Results: patent US20250011363A1, “OPTIMIZED SHORTENED PEPTIDE THAT BINDS TO ACETYLCHOLINE RECEPTOR, AND USE THEREOF” (SKINMED CO., LTD., priority 2021, published 2025)

Biological target: acetylcholine receptor
Assay: SPR, peptide at 10 uM, AchR immobilized

Binder | Binding affinity [RU]
RRAMPK [6mer-1-673] | 16
KRDSMR [6mer-1-683] | 16
KKIWKR [6mer-1-675] | 21
RKHPKK [6mer-1-674] | 32
KKEWKK [6mer-1-681] | 32
KKKDIR [6mer-1-682] | 30
RRESWK [6mer-1-685] | 14
KRNMAK [6mer-1-669] | 23
RKMEIR [6mer-1-672] | 17
KRDSPK [6mer-1-667] | 32
KRNNDR [6mer-1-684] | 20
KKAANK [6mer-1-666] | 18
KKCCFR [6mer-1-677] | 22
KKDPPR [6mer-1-680] | 27
RKATVK [6mer-1-668] | 17
KRMAAK [6mer-1-678] | 25
KRCPWR [6mer-1-676] | 16
KKNMVR [6mer-1-671] | 11
KKAEER [6mer-1-679] | 30
KKDWNR [6mer-1-670] | 11

Second part, the binder after the results:

Binding affinity [RU] | Binder
33 | RKDEVR [6mer-1-688]
22 | RKNTHK [6mer-1-692]
27 | KRFNHK [6mer-1-698]
21 | KKMHHR [6mer-1-710]
11 | KRCPVR [6mer-1-689]
18 | KKHCNR [6mer-1-696]
31 | RKPKAR [6mer-1-691]
29 | KKFKPK [6mer-1-709]
21 | KREAER [6mer-1-690]
24 | KKPSNK [6mer-1-712]
18 | KRMMVK [6mer-1-715]
25 | KKYEVR [6mer-1-686]
23 | RKFKAR [6mer-1-718]
28 | RRTTVR [6mer-1-699]
26 | KRFWPK [6mer-1-707]
22 | RKIDMK [6mer-1-693]
14 | KKKHEK [6mer-1-708]

Binding affinity [RU] | Binder
22 | KRHEDR [6mer-1-717]
25 | KRTSFK [6mer-1-714]
31 | KRDWVK [6mer-1-702]
23 | RREWIK [6mer-1-687]
27 | RKYTKR [6mer-1-694]
20 | KKATNK [6mer-1-713]
13 | RRKTWR [6mer-1-701]
12 | KRTEWR [6mer-1-705]
16 | RRMCER [6mer-1-704]
18 | KKFHPR [6mer-1-703]
13 | KRADVK [6mer-1-695]
29 | KRMKDR [6mer-1-706]
19 | RRATHR [6mer-1-711]
11 | RRMPFK [6mer-1-716]
19 | RKKMWK [6mer-1-700]
13 | RRPTNR [6mer-1-697]

Biological target: acetylcholine receptor
Assay: SPR, peptide at 10 uM on immobilised AchR

Binding affinity (RU) | Binder
147 | KKSISR [6mer-1-66]
139 | KKRIQR [6mer-1-42]
145 | KRLQCK [6mer-1-59]
139 | RKQYYK [6mer-1-57]
148 | KKWVSR [6mer-1-63]
131 | RRRFLR [6mer-1-52]
144 | RRRVCK [6mer-1-54]
137 | RRGIQR [6mer-1-56]
121 | KKSRRR [6mer-1-65]
133 | KRSIYR [6mer-1-55]
149 | RRWQTR [6mer-1-49]
149 | KRRLLK [6mer-1-47]
135 | RRSYTR [6mer-1-67]
148 | KRQYCK [6mer-1-44]
154 | RKQFTK [6mer-1-64]
142 | KRLYQR [6mer-1-46]
139 | KKVRTR [6mer-1-50]
133 | RRWFTK [6mer-1-62]
126 | RKSVTR [6mer-1-58]
127 | RRVLYK [6mer-1-51]
153 | RKLQLK [6mer-1-68]
145 | RKGLTK [6mer-1-45]
124 | RRWVRR [6mer-1-48]
123 | KRVIQR [6mer-1-53]
139 | RKSIQK [6mer-1-60]
121 | KRSYCK [6mer-1-61]
